Data as given in publication PMC10936425.
Several values for one entry are separate records, joined by “and”; a condition that tells them apart may be missing. Equal values may be shown once.

Columns and labels:
[1] = biological target: K2-2 with a C-terminal His-tag (K2-2^C-His) (not stated (bacteriophage of Klebsiella pneumoniae, phage not named)); test: crystal structure; K2-2^C-His crystallised at 15°C, 0.1 M Bicine pH 9.0, 10% PEG-4000, 10% polyacrylic acid 2100 sodium salt; Se-MAD phasing; space group P6(3)
[2] = biological target: K2-2 with a C-terminal His-tag (K2-2^C-His) (not stated (bacteriophage of Klebsiella pneumoniae, phage not named)); test: SEC-MALS; 100 microgram protein in 20 mM Tris pH 8.0, 100 mM NaCl, 0.02% NaN3; ENrich SEC 650 column, 0.5 ml/min
[3] = biological target: K2-2 D515A mutant (not stated (bacteriophage of Klebsiella pneumoniae, phage not named)); test: as above
[4] = biological target: K2-2 (phage tailspike protein, K2 capsular polysaccharide depolymerase), wild type with an N-terminal His-tag (not stated (bacteriophage of Klebsiella pneumoniae, phage not named)); test: crystal structure; N-terminally His-tagged K2-2 (wild type, and E323A soaked with 10 mM hydrolyzed K2 CPS products for 18 h); crystallised at 15°C, 0.1 M Bicine pH 9.0, 22% PEG-6000; space groups P2(1) and C2
[5] = biological target: K2-2 (phage tailspike protein, K2 capsular polysaccharide depolymerase), wild type with an N-terminal His-tag (not stated (bacteriophage of Klebsiella pneumoniae, phage not named)); test: SEC-MALS; 100 microgram protein in 20 mM Tris pH 8.0, 100 mM NaCl, 0.02% NaN3; ENrich SEC 650 column, 0.5 ml/min
[6] = biological target: K2-2 E323A mutant (not stated (bacteriophage of Klebsiella pneumoniae, phage not named)); test: crystal structure; N-terminally His-tagged K2-2 (wild type, and E323A soaked with 10 mM hydrolyzed K2 CPS products for 18 h); crystallised at 15°C, 0.1 M Bicine pH 9.0, 22% PEG-6000; space groups P2(1) and C2
[7] = biological target: K2-2 S424A mutant (not stated (bacteriophage of Klebsiella pneumoniae, phage not named)); test: SEC-MALS; 100 microgram protein in 20 mM Tris pH 8.0, 100 mM NaCl, 0.02% NaN3; ENrich SEC 650 column, 0.5 ml/min

Question: How did the stoichiometry N [1] turn out when “K2-2 with a C-terminal His-tag (K2-2^C-His) (enzyme)” was run?
Answer: Its stoichiometry N is 4.

Question: What about the stoichiometry N [2] of the same substance?
Answer: Its stoichiometry N is 4 and 3.

Question: Which stoichiometry N [3] does the source give for K2-2 D515A mutant (enzyme) here?
Answer: Its stoichiometry N is 2.

Question: “K2-2 (phage tailspike protein, K2 capsular polysaccharide depolymerase), wild type with an N-terminal His-tag (enzyme)” was tested. Which stoichiometry N [4] did it give?
Answer: Its stoichiometry N is 3.

Question: And the stoichiometry N [5]?
Answer: Its stoichiometry N is 3.

Question: Which stoichiometry N [6] does the source give for K2-2 E323A mutant (enzyme) here?
Answer: Its stoichiometry N is 3.

Question: With K2-2 S424A mutant (enzyme) as the substance, how does the stoichiometry N [7] read?
Answer: Its stoichiometry N is 3.
